Test results published in patent publication US20110118181A1 (INSTITUT DE RECHERHES CLINIQUES DE MONTREAL, published 2011).
Values belong to the binder of their own block, whether it stands above or below them.

Assays:
[1] = target: T1, PCSK9-V5 (full-length human PCSK9 with C-terminal V5 tag) (human, UniProt Q8NBP7 31-692); test: co-immunoprecipitation with anti-V5 from co-transfected CHO-K1 cells
T1 construct: Used as conditioned medium of CHO-K1 cells (Far Western, pull-down) or co-expressed in cells (co-IP); The background says PCSK9 is secreted as a prosegment-PCSK9 heterodimer; also called full-length (FL) PCSK9-V5; native PCSK9; not shown: C-terminal V5 tag
Description: (§1) FIG. 4. Characterization of the interaction of PCSK9 with AnxA2. (A) PCSK9-V5 Far Western blot of lysates of COS-1 cells, wild type (WT) CHO-K1 cells, CHO-K1 cells overexpressing an empty vector (pIRES), AnxA1 or AnxA2. (B) Poly-histidine pull-down assay. Purified native AnxA2-(His)₆ or AnxA1-(His)₆ were immobilized on cobalt chelate beads and incubated with PCSK9-V5. […] PCSK9 (heavy arrow) and its furin-cleaved form (PCSK9-Δ218; light arrow) were pulled-down by AnxA2. (C) Co-immunoprecipitation experiments of CHO-K1 cells co-transfected with PCSK9-V5 and either AnxA1-HA, AnxA2-HA or with AnxA2-HA and p11. […] Expression of the transfected constructs was analyzed by Western blotting of cell lysates using the anti-V5-HRP or anti-HA-HRP antibodies. (D, left panel) PCSK9-V5 Far Western blots of purified AnxA2-(His)₆ in the absence or presence of reducing agents. Note that in non-reducing conditions, PCSK9-V5 binds both the dimer and monomer forms of AnxA2. (D, right panel) Western blots of the purified AnxA2-(His)₆ using the anti-AnxA2 mAb in non-reducing or reducing conditions. (E, upper panel) Media from CHO-K1 cells expressing PCSK9-V5 or the CHRD-V5 were separated by SDS-PAGE (8%), transferred onto nitrocellulose, incubated with purified AnxA2-(His)₆ and probed with the anti-His-HRP antibody. […]

[2] = target: T1, PCSK9-V5 (full-length human PCSK9 with …); test: Far Western blot of lysates of CHO cells overexpressing AnxA1
Description: Lysates (20 to 30 μg protein), media or purified AnxA2-(His)₆ were heated in reducing or non-reducing Laemmli sample buffer, resolved by SDS-PAGE on 8% glycine gels and electro-transferred onto nitrocellulose membranes (GE Healthcare). Following 1 h incubation in 5% skim milk in Tris-Buffered Saline-0.1% Tween (TBST), membranes where incubated with conditioned media of CHO-K1 cells overexpressing either an empty vector (pIRES-V5), PC5A-V5, CHRD-V5, pIRES-D374Y, PCSK9-V5 or its V5-tagged mutants, or incubated with purified AnxA2-(His)₆ for 3 h at room temperature. […] For competition experiments, 10 μg of His-tagged PCSK9 or CHRD were added to the PCSK9-V5 media before Far Western blotting. For PCSK9 binding requirements with the ˜33 kDa protein, 1M NaCl, 10 mg/ml heparin, 1M NaCl+10 mg/ml heparin, or 100 mM EDTA were added to the PCSK9-V5 conditioned media used for Far Western blotting.

[3] = target: T2, ˜33 kDa protein of COS-1 cells, identified as monkey Annexin A2 (AnxA2; XP-001155637) (monkey); test: Far Western blot of COS-1 lysates
T2 construct: Denatured on nitrocellulose in Far Western blots; native in co-IP; The ˜33 kDa band was also seen in BSC40 and HuH7 lysates; also called endogenous Annexin A2
Description: All of these were detected by the HRP-tagged V5 mAb. (B) The COS-1 cells soluble fraction (supernatant S3; 3 μg protein) was analyzed by Far Western blot and compared to 30 μg protein loads from other subcellular fractions. […] (D) For competition experiments, purified PCSK9-His or CHRD-His were added to the PCSK9-V5 conditioned media used for Far Western blotting. (E) PCSK9-V5-binding requirements were tested by adding 1M NaCl, 10 mg/ml heparin, 1M NaCl+10 mg/ml heparin, or 100 mM EDTA to the PCSK9-V5 conditioned media used for Far Western blotting. Heavy arrows point to the migration position of the ˜33 kDa protein, and the light arrow to that of the ˜45 kDa protein. (−) denotes a control lane where nothing was added to the Far Western blotting media;
Lysates (20 to 30 μg protein), media or purified AnxA2-(His)₆ were heated in reducing or non-reducing Laemmli sample buffer, resolved by SDS-PAGE on 8% glycine gels and electro-transferred onto nitrocellulose membranes (GE Healthcare). Following 1 h incubation in 5% skim milk in Tris-Buffered Saline-0.1% Tween (TBST), membranes where incubated with conditioned media of CHO-K1 cells overexpressing either an empty vector (pIRES-V5), PC5A-V5, CHRD-V5, pIRES-D374Y, PCSK9-V5 or its V5-tagged mutants, or incubated with purified AnxA2-(His)₆ for 3 h at room temperature. […]

[4] = target: T3, AnxA2 ΔR1-HA (deletion of aa 37-108) (human, UniProt P07355 1-339); test: Far Western blot of HEK293 lysates
T3 construct: also called Δ37-108 (R1)

[5] = target: T1, PCSK9-V5 (full-length human PCSK9 with …); test: poly-histidine pull-down, AnxA1-(His)6 on cobalt chelate beads, PCSK9-V5 medium
Description: as §1, with “conditions.” for “conditions. (E, upper panel) Media from CHO-K1 cells expressing PCSK9-V5 or the CHRD-V5 were separated by SDS-PAGE (8%), transferred onto nitrocellulose, incubated with purified AnxA2-(His)₆ and probed with the anti-His-HRP antibody.”
20 μg of purified AnxA2-(His)₆ or AnxA1-(His)₆ or no proteins (for negative control) were immobilized onto a cobalt chelate resin (Thermo Scientific). […] Supernatants were analyzed by Western blot as described above using the anti-V5-HRP or anti-His-HRP antibodies.

T2 sequence (P07355 2-339): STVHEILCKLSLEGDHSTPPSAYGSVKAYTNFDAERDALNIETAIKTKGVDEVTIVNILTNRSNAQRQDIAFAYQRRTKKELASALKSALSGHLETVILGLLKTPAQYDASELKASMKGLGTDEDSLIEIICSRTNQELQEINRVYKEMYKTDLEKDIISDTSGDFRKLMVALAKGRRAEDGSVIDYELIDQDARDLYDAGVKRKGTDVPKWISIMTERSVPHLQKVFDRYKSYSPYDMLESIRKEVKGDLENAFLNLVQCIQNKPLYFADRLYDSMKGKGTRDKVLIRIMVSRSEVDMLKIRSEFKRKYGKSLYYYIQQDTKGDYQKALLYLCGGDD

B1: AnxA1-HA (human AnxA1 with C-terminal HA epitope) (other)
chain: MAMVSEFLKQAWFIENEEQEYVQTVKSSKGGPGSAVSPYPTFNPSSDVAALHKAIMVKGVDEATIIDILTKRNNAQRQQIKAAYLQETGKPLDETLKKALTGHLEEVVLALLKTPAQFDADELRAAMKGLGTDEDTLIEILASRTNKEIRDINRVYREELKRDLAKDITSDTSGDFRNALLSLAKGDRSEDFGVNEDLADSDARALYEAGERRKGTDVNVFNTILTTRSYPQLRRVFQKYTKYSKHDMNKVLDLELKGDIEKCLTAIVKCATSKPAFFAEKLHQAMKGVGTRHKALIRIMVSRSEIDMNDIKAFYQKMYGISLCQAILDETKGDYEKILVALCGGNYPYDVPDYA
binding result [1]: no binding

B3: CHRD-V5 (C-terminal Cys-His-rich domain of PCSK9, V5-tagged) (other, human, UniProt Q8NBP7 455-692, looked up)
chain: LFCRTVWSAHSGPTRMATAVARCAPDEELLSCSSFSRSGKRRGERMEAQGGKLVCRAHNAFGGEGVYAIARCCLLPQANCSVHTAPPAEASMGTRVHCHQQGHVLTGCSSHWEVEDLGTHKPPVLRPRGQPNQCVGHREASIHASCCHAPGLECKVKEHGIPAPQEQVTVACEEGWTLTGCSALPGTSHVLGAYAVDNTCVVRSRDVSTTGSTSEGAVTAVAICCRSRHLAQASQELQ
notes: domain: CHRD; Conditioned medium of CHO-K1 cells; also called CHRD alone; not shown: C-terminal V5 tag
fold binding against full length PCSK9 [3]: 3 fold
binding result [4]: no binding

The next lines start with the values.

binding result [2]: no binding
B2: human Annexin A1 (AnxA1), untagged (other, UniProt P04083 2-346, looked up)
chain: AMVSEFLKQAWFIENEEQEYVQTVKSSKGGPGSAVSPYPTFNPSSDVAALHKAIMVKGVDEATIIDILTKRNNAQRQQIKAAYLQETGKPLDETLKKALTGHLEEVVLALLKTPAQFDADELRAAMKGLGTDEDTLIEILASRTNKEIRDINRVYREELKRDLAKDITSDTSGDFRNALLSLAKGDRSEDFGVNEDLADSDARALYEAGERRKGTDVNVFNTILTTRSYPQLRRVFQKYTKYSKHDMNKVLDLELKGDIEKCLTAIVKCATSKPAFFAEKLHQAMKGVGTRHKALIRIMVSRSEIDMNDIKAFYQKMYGISLCQAILDETKGDYEKILVALCGGN
notes: Overexpressed in CHO cells as control

binding result [5]: no binding
B4: purified AnxA1-(His)6 (other)
chain: MAMVSEFLKQAWFIENEEQEYVQTVKSSKGGPGSAVSPYPTFNPSSDVAALHKAIMVKGVDEATIIDILTKRNNAQRQQIKAAYLQETGKPLDETLKKALTGHLEEVVLALLKTPAQFDADELRAAMKGLGTDEDTLIEILASRTNKEIRDINRVYREELKRDLAKDITSDTSGDFRNALLSLAKGDRSEDFGVNEDLADSDARALYEAGERRKGTDVNVFNTILTTRSYPQLRRVFQKYTKYSKHDMNKVLDLELKGDIEKCLTAIVKCATSKPAFFAEKLHQAMKGVGTRHKALIRIMVSRSEIDMNDIKAFYQKMYGISLCQAILDETKGDYEKILVALCGGNHHHHHH
